We go through four compounds from US20050074814A1, “Relaxin3-GPCR135 complexes and their production and use” (priority 2003, published 2005).

The test system of experiment [1] is human GPCR135. As to the kind of experiment: Intracellular cAMP accumulation assay in CHO-K1 cells stably expressing human GPCR135. Type of experiment: cell-based. As to conditions: in the presence of GPCR135. The protocol: (§1) CHO-K1 cells stably expressing human GPCR135 were established by transfection of GPCR135 expressing plasmid into CHO-K1 (ATCC# CCL-61) cells and culturing the transfected cells under selection of G418 (400 mg/L). The receptor expressing cells were seeded in 96-well plates at a cell density of 30,000 cells/well. Twenty-four hours later, cell culture medium was replaced with DMEM-F12 plus 2 mM IBMX (sigma). A different test compound for cAMP stimulation was added to each well. The reactions were incubated at room temperature for 20 min. Twenty micro-liters of 0.5 N HCl was added to each well to stop the reaction and extract the accumulated cAMP. The cAMP concentration was measured using a cAMP ELISA kit (NEN).

The test system of experiment [2] is CHO-K1 cells. Description: Intracellular cAMP accumulation assay in un-transfected CHO-K1 control cells. Type of experiment: cell-based. The protocol: CHO-K1 cells stably expressing human GPCR135 (GPCR135) and un-transfected CHO-K1 cells (Control) were used for cAMP accumulation assays. Cells were treated with different stimulants as indicated. cAMP accumulated in the cells was extracted by HCl and the concentration of cAMP was measured by a ELISA kit (NEN) using ^125I-labeled cAMP and Flash plates.
as §1

The target in experiment [3] is T1, GPCR135 (Homo sapiens, UniProt Q9NSD7).
T1 sequence (Q9NSD7 1-469): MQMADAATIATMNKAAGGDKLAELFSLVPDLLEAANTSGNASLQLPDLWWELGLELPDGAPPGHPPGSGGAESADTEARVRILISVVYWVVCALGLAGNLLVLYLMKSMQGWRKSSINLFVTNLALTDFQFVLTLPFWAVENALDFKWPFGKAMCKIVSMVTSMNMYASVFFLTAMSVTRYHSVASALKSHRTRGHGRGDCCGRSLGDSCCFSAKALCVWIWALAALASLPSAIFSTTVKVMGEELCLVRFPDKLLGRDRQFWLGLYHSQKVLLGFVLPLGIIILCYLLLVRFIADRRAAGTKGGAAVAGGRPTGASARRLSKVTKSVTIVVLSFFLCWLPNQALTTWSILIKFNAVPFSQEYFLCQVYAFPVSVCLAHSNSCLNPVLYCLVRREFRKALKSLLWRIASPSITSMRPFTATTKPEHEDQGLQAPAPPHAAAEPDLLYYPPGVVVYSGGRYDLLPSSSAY
Description: Radioligand binding assay on COS-7 cells transfected with GPCR135. On the set-up: primers complementary to the putative translation start and stop sites of the GPCR135 open reading frame; expressed in transfected cells. As to conditions: human GPCR135 in COS-7 cells; presence or absence of 1 μM unlabeled competitor. The method, then:
(§2) COS-7 cells in 6-well tissue culture plates were transfected by GPCR135 expressing plasmid using LipofectAmine. Two days after transfection, cells were washed with binding buffer: DMEM plus 50 mM Hepes, pH 7.2 and 1% BSA. ^125I-label human relaxin3 was added to each well in 1 ml of binding buffer at presence or absence 1 μM of unlabeled relaxin as competitor. The binding assays were carried out at room temperature for one hour and the unbound ligand was washed away by ice-cold PBS. The bound 125I-relaxin3 was counted in a gamma counter.

Experiment [4] concerns the target T2, mouse GPCR135 (Mus musculus, UniProt Q8BGE9).
T2 construct: Mouse GPCR135 coding region was PCR amplified from mouse genomic DNA; expressed in transfected cells; host or cells: COS-7 (transient)
T2 sequence (Q8BGE9 1-472): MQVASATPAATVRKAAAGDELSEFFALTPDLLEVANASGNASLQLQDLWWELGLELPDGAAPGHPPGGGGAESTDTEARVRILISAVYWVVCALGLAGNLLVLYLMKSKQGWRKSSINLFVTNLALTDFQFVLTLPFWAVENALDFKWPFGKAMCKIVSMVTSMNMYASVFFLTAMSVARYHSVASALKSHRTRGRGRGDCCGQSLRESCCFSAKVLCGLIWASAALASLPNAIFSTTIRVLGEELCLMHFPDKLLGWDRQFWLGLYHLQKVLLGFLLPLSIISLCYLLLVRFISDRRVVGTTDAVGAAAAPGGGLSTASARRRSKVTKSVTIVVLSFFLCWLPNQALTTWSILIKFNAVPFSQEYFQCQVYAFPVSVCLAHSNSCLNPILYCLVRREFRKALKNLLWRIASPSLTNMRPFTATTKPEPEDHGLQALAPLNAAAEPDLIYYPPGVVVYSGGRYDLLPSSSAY
The experiment is described as above. The conditions noted are these: mouse GPCR135 in COS-7 cells; presence or absence of 1 μM unlabeled competitor. The protocol: as §2

The test system of experiment [5] is rat GPCR135. Described as above. As to conditions: rat GPCR135 in COS-7 cells; presence or absence of 1 μM unlabeled competitor. The protocol:
as §2

For experiment [6], the target named is T1, GPCR135. On the set-up: host or cells: Cos-1 (transient). The conditions noted are these: transient expression of GPCR135 in Cos-1 cells; cited from earlier work.
Experiment [7] deals with T1, GPCR135. Description: Intracellular cAMP accumulation assay in CHO-K1 cells stably expressing human GPCR135. Format: cell-based. On the set-up: primers complementary to the putative translation start and stop sites of the GPCR135 open reading frame; expressed in transfected cells; host or cells: CHO-K1 (transient, pCIneo vector), membranes. The conditions noted are these: CHO-K1 cells expressing human GPCR135. The method, then:
as §1

Experiment [8] addresses T1, GPCR135. As to the kind of experiment: Ca2+ mobilization assay (FLIPR) in HEK293 cells co-expressing GPCR135 and Gqi5. Type of experiment: cell-based. On the set-up: primers complementary to the putative translation start and stop sites of the GPCR135 open reading frame; expressed in transfected cells. The method, then: Using LipofectAmine, human embryonic kidney (HEK) 293 cells were co-transfected with a plasmid expressing GPCR135 receptor and a plasmid expressing Gqi5, a mutant G-protein that translates the activation of GPCR135 into an increased intracellular Ca 2+, or increased Ca^2+ mobilization (Conklin et al., 1993, Nature 363: 274-276). Two days after transfection, cells were detached with PBS plus 10 mM EDTA, pH 8.0. The detached cells were washed with DMEM-F12 medium (without phenol red, Invitrogen) and seeded in black poly-D lysine coated 96-well plates at a cell density of 50,000 cell/well. Calcium dye, Fluo-3 (AM) (TEFLABS, Austin, Tex.) was loaded into the cells and ligand stimulated calcium mobilization was monitored using FLIPR (Molecular Device).
HEK293 cells, untransfected (293 Control) or transfected by Gqi5 (293/Gqi5) alone or human GPCR135 (GPCR135) alone, or co-transfected by human GPCR135 and Gqi5 (GPCR135/Gqi5), were used for Ca^2+ mobilization assays under stimulation of relaxin3 as the ligand. Ligand-stimulated intracellular mobilization was monitored using FLIPR.

Experiment [9] has as its target T1, GPCR135. Description: GTPγS binding assay with GPCR135 expressing cell membranes. The conditions noted are these: isolated membranes of CHO-K1 cells transfected with GPCR135; 35S-GTPγS. Type of experiment: biochemical. On the set-up: primers complementary to the putative translation start and stop sites of the GPCR135 open reading frame; expressed in transfected cells; host or cells: CHO-K1 (transient, pCIneo vector), membranes. The protocol: Frozen rat brains (5 g) were homogenized at −30° C. in 40 ml ethanol/HCl (ethanol to 0.8M HCl ratio at 3:1). The homogenate was extracted at 4° C. for 2 hr and then centrifuged at 4° C. at 20,000 g for 30 min. The supernatant was loaded onto a 2 ml SP-Sephadex C-25 column (Amersham), washed with 1 M acetic acid and eluted with 2 M pyridine and 1 M acetic acid. The eluted fraction was loaded onto a 6 ml C-18 BondElut column, washed with 0.1% TFA and eluted with 60% acetonitrile and 0.1% TFA. The eluted peptides were lyophilized, reconstituted in water, and tested for GPCR135 ligand activity using GTPγS binding assay as described in Example 5.
GPCR135 expression vector was transfected into CHO-K1 cells using Lipofectamine (Invitrogen). Two days after transfection, the transfected cells were harvested and homogenized in GTPγS binding buffer: 50 mM Tris-HCl, pH 7.4, 10 mM MgCl2, 1 mM EDTA pH 8.0, and 100 mM NaCl. Protease inhibitors were added to the buffer at concentrations of 1 mM PMSF, 10 μg/ml of pepstain A, 10 μg/ml of leupeptin. Cell membranes were isolated by centrifugation at 20,000 g for 30 min. […] Microscint-40 (Packard) was added to each well and the plate was counted on a top counter (TopCount NTX, Packard).

Experiment [10] addresses T3, LGR7 (Homo sapiens, UniProt Q9HBX9).
T3 sequence (Q9HBX9 1-757): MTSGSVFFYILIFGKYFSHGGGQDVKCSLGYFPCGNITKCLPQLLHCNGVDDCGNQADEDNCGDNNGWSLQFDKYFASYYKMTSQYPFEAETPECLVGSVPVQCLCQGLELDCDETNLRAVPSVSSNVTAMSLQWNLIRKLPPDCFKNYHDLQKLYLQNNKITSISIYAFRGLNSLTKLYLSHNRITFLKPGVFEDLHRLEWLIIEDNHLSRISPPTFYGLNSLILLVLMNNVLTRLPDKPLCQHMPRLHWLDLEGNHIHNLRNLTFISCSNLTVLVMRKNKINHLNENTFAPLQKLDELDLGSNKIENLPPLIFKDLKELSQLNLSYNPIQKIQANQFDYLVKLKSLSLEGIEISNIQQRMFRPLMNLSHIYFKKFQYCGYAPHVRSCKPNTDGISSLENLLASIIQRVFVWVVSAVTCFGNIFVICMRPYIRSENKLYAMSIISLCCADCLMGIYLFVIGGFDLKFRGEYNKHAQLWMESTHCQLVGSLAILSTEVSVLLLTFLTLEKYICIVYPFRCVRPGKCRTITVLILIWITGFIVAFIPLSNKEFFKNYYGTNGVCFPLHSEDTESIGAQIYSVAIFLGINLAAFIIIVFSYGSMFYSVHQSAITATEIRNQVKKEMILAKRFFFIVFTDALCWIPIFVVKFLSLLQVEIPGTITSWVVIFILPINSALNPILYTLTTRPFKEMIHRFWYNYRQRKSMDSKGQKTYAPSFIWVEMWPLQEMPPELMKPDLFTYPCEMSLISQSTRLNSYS
The conditions noted are these: cited from earlier work.

Sequence of rat GPCR135 (as listed by the source): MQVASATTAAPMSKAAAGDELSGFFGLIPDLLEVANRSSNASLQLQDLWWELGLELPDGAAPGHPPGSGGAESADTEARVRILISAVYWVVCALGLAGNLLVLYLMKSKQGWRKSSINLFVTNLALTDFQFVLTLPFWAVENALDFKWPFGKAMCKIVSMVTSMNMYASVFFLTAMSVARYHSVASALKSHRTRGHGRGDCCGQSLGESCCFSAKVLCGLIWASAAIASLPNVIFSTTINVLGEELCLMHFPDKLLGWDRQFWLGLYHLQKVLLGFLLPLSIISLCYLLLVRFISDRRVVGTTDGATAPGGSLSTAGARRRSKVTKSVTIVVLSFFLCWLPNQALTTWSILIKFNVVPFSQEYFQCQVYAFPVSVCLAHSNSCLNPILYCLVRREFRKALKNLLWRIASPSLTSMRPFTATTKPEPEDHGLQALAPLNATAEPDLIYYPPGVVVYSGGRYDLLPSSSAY

Regarding `C=C[C@@]1(C)CC(=O)[C@]2(O)[C@@]3(C)[C@@H](O)CCC(C)(C)[C@@H]3[C@H](O)[C@H](OC(C)=O)[C@@]2(C)O1` [forskalin], the “intracellular concentration of cAMP” value in experiment [1] and in [2] (in the absence of GPCR135) was “increases the intracellular concentration of cAMP” each time.
In the case of “^125I-relaxin 3: 125I-labeled human relaxin3 used as radioligand”, the “specific binding to GPCR135” value in [3], in [4] and in experiment [5] was “specifically binds” each time.
Consider “angiotensin II (DRVYIHPF; Angiotensin-2; UniProt P01019 25-32, looked up)”, for which the “binding sites on GPCR135 expressing cells” value in experiment [6] was “did not produce any binding sites”.
With “relaxin3: recombinant human relaxin3, mature two-chain (A and B) peptide linked by disulfide bridges, purified from transfected COS-7 medium”, the “forskalin-stimulated cAMP accumulation” value was “inhibits forskalin-stimulated cAMP accumulation” in experiment [7] and “not in control cells” in experiment [2] (control cells where GPCR135 is absent). For the same compound, the “ligand-stimulated intracellular Ca2+ mobilization” value in experiment [8] is listed as “stimulated Ca^2+ mobilization”. For the same compound, in experiment [9], the “stimulation of GTPγS binding in GPCR135 expressing cell membrane” value is on record as “potently stimulated GTPγS binding”. Moreover, the “activation of LGR7” value in experiment [10] was “activates LGR7”.
